# Data: the supplement of paper PMC11865577
# What was measured:
# Test in all cases: pull-down binding Z-score (relative to library population); higher = stronger binding
# [1] = test system: TO-N3-2 (biotin conjugate); details: RNA library: Library-2
# Method in brief: (§1)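 To score binding, a beads-only signal was subtracted, barcoded replicate probes were averaged with the highest and lowest dropped, and the value was converted to a Z-score using the library mean and standard deviation. The input was 1 μg of Cy5- or Cy3-end-labelled RNA library, heat-folded in phosphate/NaCl/KCl buffer and mixed for 60 min at 25 °C with streptavidin beads carrying 100 pmol of biotin-conjugated small molecule. Bound RNA was eluted in hot SDS and hybridised to a DNA barcode microarray at 55.5 °C for 20 h.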
# [2] = test system: TO-3-N3 (biotin conjugate); details: RNA library: Library-2
# Method in brief: as §1
# [3] = test system: G-clamp-N3 (biotin conjugate); details: RNA library: Library-1 (pre-miRNA loops + repeats)
# Method in brief: as §1
# TO-N3 (biotin conjugate) = details: RNA library: Library-2
# Method in brief: as §1
# [4] = test system: TO-3-N3-2 (biotin conjugate); details: RNA library: Library-2
# Method in brief: as §1
Sequence,pull-down binding Z-score [1],pull-down binding Z-score [2],pull-down binding Z-score [3],pull-down binding Z-score (TO-N3 (biotin conjugate)),pull-down binding Z-score [4]
GCCCCAGGGCAGGGGC [hsa-mir-4515],-0.972,-0.247,1.01,-0.583,-0.473
AUAGUUUUAGGGCAGGGAUUUUGCCCACAAGGAGGUAACUAU [hsa-let-7d],0.203,0.236,-0.917,0.112,0.589
CGAGUCUGAGCCUUUAAAAGCCACUCU [hsa-mir-1287],0.586,-0.321,-1.4,0.0262,-0.012
AUGUCCCUUUAGUUCAAAGU [hsa-mir-2052],-0.324,-0.246,-2.06,-0.283,-0.0713
AGAUGAGUUUAUGUUUUAUCCAACU [hsa-mir-193b],-0.135,-0.608,-1.8,-0.416,-0.228
AUAGUUGAGGAGGACACCCAAGGAGAUCACUAU [hsa-let-7e],1.26,0.341,-0.413,0.871,0.863
GGACUCAGCCCUGUGCUGAGCCC [hsa-mir-5587],-0.961,0.722,-0.0279,0.532,-0.313
GGCAGGUGUGGUUGGAGGAAGCAGCCUGAACCUGCC [hsa-mir-6778],0.361,-0.114,0.663,0.227,0.333
ACACCUGUAAAGAAUUGGUCAGCCUGGGGACUGGUGAUCUCUGCAGCUGU [hsa-mir-4265],1.42,1.15,-0.15,1.39,0.475
GCGUCGCUUCUCCCUAAUGUUGCC [hsa-mir-6781],0.502,-0.385,-0.106,-0.068,0.089
UGGUGGUGAAUUCAUGAGUCGCCA [hsa-mir-3115],-0.62,-0.509,0.372,-0.671,-0.498
GUAUGAGUGCCACAGAGCCGUCAUAA [hsa-mir-9-3],1.73,0.938,-0.99,1.39,-0.231
GGCAGGGUCCUCCAGCUCAUUCCUCCUGCC [hsa-mir-6829],0.71,0.564,0.723,0.491,0.56
CCAUCAAGCCCCACCAGAAGGUGGAGGCCCAGGUGAG [hsa-mir-4721],0.864,0.105,-1.36,0.16,-0.479
AGGGCAAGUCCAAAGGUAUACAGUUGGUCUGUUCA [hsa-mir-7107],0.381,-0.459,1.04,-0.107,-0.208
GGUUUCGGGCUGCC [hsa-mir-661],0.74,0.148,0.142,0.249,0.067
CAAGGAAGAGUCACAGUCUCUUCCUUG [hsa-mir-659],-0.539,-0.474,-0.00418,-0.699,-0.285
CUUCACUGGUGCAGUAAGAAG [hsa-mir-7853],-0.23,-0.0978,-0.0639,-0.253,-0.195
CUGAGGACUGAGGCUCACCUUG [hsa-mir-6772],0.813,-0.057,0.0792,0.412,0.0747

Sequence,pull-down binding Z-score [1],pull-down binding Z-score [2],pull-down binding Z-score [3],pull-down binding Z-score (TO-N3 (biotin conjugate)),pull-down binding Z-score [4]
UGCACCACUCUCCCUGUGAUGAGGUGAA [hsa-mir-4786],0.456,-0.535,-0.896,-0.255,-0.354
GAGCCCUGAGGGGCUC [hsa-mir-6087],-0.191,0.542,1.46,0.283,-0.303
GCUGAGGUUGCGUUGACGCUCGC [hsa-mir-1292],1.17,0.0445,0.447,0.384,-0.0926
GCCCUGGGCCGGGCGAUGUCCGCUUGGGGG [hsa-mir-6090],1.41,0.811,-0.223,1.11,0.149
GUCAUUUCCCAUCACUAAUGGC [hsa-mir-6815],-0.881,-0.674,-0.92,-0.873,-0.336
AGAUGAGGGUGUCGGAUCAACU [hsa-mir-193a],0.801,0.135,1.51,0.579,0.248
CUAACAGGCCCCUGUCACCAUUAG [hsa-mir-5579],0.236,-0.463,-0.762,-0.073,-0.144
UUGUUGUUAUUACU [hsa-mir-378d-1],-0.877,-0.148,-0.945,-0.378,-0.259
UGCUGUUGGAGACUCGAUUGUUGGUGACAGCGAAAGAACGAUAACAAA [hsa-mir-3655],1.04,-0.405,-1.76,0.231,-0.149
UGUCUUUUUUUUUUUCUGAGACA [hsa-mir-1273c],-1.36,-0.718,-0.128,-1.21,0.127
CUGCGGCCCUGAUGUCUCUACUCCAG [hsa-mir-4691],0.919,0.388,-0.134,0.703,0.103
UGUGAGAGCUACUAAGUCUUAUA [hsa-mir-8076],-0.596,0.0311,0.772,-0.162,-0.223
ACAGUUUGAGGGUCUAUGAUACCACCCGGUACAGGAGAUAACUGU [hsa-let-7g],0.988,-0.508,0.817,-0.0397,-0.136
AUUUAUGUGAACUAAAAUAUAAAU [hsa-mir-513b],-0.599,1.21,-0.828,1.03,0.14
CUUGUGGUAUUAGUCCGCACAAG [hsa-mir-100],-0.096,0.418,1.17,0.334,-0.161
GGCGGCUCGGAGUACCUCUGCCGCC [hsa-mir-6869],-0.0185,0.86,0.238,0.666,-0.0436
CUCUCGUGUCCACUAGCAGGCAGGUUUUCUGACACAGG [hsa-mir-604],0.566,-0.343,0.743,-0.0789,0.313
GUCAGGAGUGGCUUUCCUGAC [hsa-mir-4462],-0.397,0.414,-0.232,0.279,-0.271
